Data published in publication PMC7505474, “Toll-like receptor 4-mediated inflammation triggered by extracellular IFI16 is enhanced by lipopolysaccharide binding” (PLoS Pathogens, 2020).

Tests used:
[1] = target: T1, Recombinant TLR4/MD2 complex (R&D Systems 3146-TM-050/CF) (UniProt O00206 24-631; Q9Y6Y9 19-160); assay: SPR; Biacore X100; TLR4/MD2 complex immobilised on a CM5 chip by amine coupling (1,223.9 RU); analyte is IFI16 pre-complexed with LPS-EB (IFI16/LPS-EB complex), 31.25-1,000 nM, 30 μl/min, 25°C, HBS-EP+ buffer; association 120 s, dissociation 180 s; 1:1 binding model; conditions: both partners purified
T1 construct: Toll-like receptor 4 chain of the bought recombinant TLR4/MD2 complex; neither species nor construct limits are stated; MD2 (lymphocyte antigen 96) chain of the bought recombinant TLR4/MD2 complex; also called TLR4/MD2 receptor; source: bought: R&D Systems

[2] = target: T1, Recombinant TLR4/MD2 complex (R&D …); assay: SPR; Biacore X100; TLR4/MD2 complex immobilised on a CM5 chip by amine coupling (1,223.9 RU); IFI16 alone 31.25-1,000 nM flowed at 30 μl/min, 25°C, HBS-EP+ buffer; association 120 s, dissociation 180 s; 1:1 binding model; conditions: both partners purified

T1 sequence (O00206 24-631, chain 1 of 2): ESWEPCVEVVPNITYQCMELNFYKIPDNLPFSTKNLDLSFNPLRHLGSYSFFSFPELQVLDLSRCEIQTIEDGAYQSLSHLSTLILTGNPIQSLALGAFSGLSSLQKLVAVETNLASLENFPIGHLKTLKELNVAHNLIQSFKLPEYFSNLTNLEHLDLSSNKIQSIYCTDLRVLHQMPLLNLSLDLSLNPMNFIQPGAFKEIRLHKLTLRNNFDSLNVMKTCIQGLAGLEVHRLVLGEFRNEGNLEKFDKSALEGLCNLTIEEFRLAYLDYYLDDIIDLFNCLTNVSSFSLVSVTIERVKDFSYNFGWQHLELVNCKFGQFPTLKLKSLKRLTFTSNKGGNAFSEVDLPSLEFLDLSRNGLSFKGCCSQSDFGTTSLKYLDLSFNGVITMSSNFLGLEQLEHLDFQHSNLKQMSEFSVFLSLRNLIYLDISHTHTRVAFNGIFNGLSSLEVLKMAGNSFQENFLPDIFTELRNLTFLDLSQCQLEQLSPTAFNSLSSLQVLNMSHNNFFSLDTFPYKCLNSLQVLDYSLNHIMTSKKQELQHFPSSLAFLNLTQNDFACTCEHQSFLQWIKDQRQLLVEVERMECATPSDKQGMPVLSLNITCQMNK
T1 sequence (Q9Y6Y9 19-160, chain 2 of 2): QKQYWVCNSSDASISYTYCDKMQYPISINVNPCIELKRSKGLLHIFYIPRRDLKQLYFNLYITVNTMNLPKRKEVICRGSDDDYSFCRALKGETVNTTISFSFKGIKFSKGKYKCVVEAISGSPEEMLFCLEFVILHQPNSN

B1: human recombinant IFI16 protein (natural protein, UniProt Q16666-2 1-729, looked up)
chain: MGKKYKNIVLLKGLEVINDYHFRMVKSLLSNDLKLNLKMREEYDKIQIADLMEEKFRGDAGLGKLIKIFEDIPTLEDLAETLKKEKLKVKGPALSRKRKKEVDATSPAPSTSSTVKTEGAEATPGAQKRKKSTKEKAGPKGSKVSEEQTQPPSPAGAGMSTAMGRSPSPKTSLSAPPNSSSTENPKTVAKCQVTPRRNVLQKRPVIVKVLSTTKPFEYETPEMEKKIMFHATVATQTQFFHVKVLNTSLKEKFNGKKIIIISDYLEYDSLLEVNEESTVSEAGPNQTFEVPNKIINRAKETLKIDILHKQASGNIVYGVFMLHKKTVNQKTTIYEIQDDRGKMDVVGTGQCHNIPCEEGDKLQLFCFRLRKKNQMSKLISEMHSFIQIKKKTNPRNNDPKSMKLPQEQRQLPYPSEASTTFPESHLRTPQMPPTTPSSSFFTKKSEDTISKMNDFMRMQILKEGSHFPGPFMTSIGPAESHPHTPQMPPSTPSSSFLTTLKPRLKTEPEEVSIEDSAQSDLKEVMVLNATESFVYEPKEQKKMFHATVATENEVFRVKVFNIDLKEKFTPKKIIAIANYVCRNGFLEVYPFTLVADVNADRNMEIPKGLIRSASVTPKINQLCSQTKGSFVNGVFEVHKKNVRGEFTYYEIQDNTGKMEVVVHGRLTTINCEEGDKLKLTCFELAPKSGNTGELRSVIHSHIKVIKTRKNKKDILNPDSSMETSPDFFF
notes: IFI16, human, full-length recombinant protein; The domains were cloned in pET30a and made 'following the same procedure as that for the full-length protein'; In assay a3 and in part of a4 the protein was pre-incubated O/N at 4°C with LPS-EB, which is not a protein; also called full-length IFI16; endotoxin-free IFI16; source: recombinant, produced as previously described [24], purified, endotoxins …
Question: Which results are given for B1?
Answer: Kd [1]: 4010 nM; koff [1]: 0.0143 s⁻¹; kon [1]: 3570 M⁻¹ s⁻¹; Kd [2]: 677 nM; koff [2]: 0.00614 s⁻¹; kon [2]: 9070 M⁻¹ s⁻¹
